The target of data set [1] is T1, MvaT (Pseudomonas aeruginosa PAO1) (UniProt Q9HW86).
T1 sequence: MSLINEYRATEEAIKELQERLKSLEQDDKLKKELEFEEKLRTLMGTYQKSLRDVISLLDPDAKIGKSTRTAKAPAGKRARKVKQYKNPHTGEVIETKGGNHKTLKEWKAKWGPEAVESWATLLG

Data set [2] concerns the target T2, MvaT full-length (Pseudomonas aeruginosa PAO1?) (UniProt Q9HW86).
T2 sequence: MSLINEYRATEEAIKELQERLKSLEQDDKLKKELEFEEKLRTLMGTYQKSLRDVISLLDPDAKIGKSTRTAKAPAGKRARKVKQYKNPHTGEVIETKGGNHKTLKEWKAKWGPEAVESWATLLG
Nature of the data set: EMSA. Conditions: EMSA: 8 mM Tris pH 8.0, 15 mM HEPES pH 7.9, 40 mM NaCl, 40 mM KCl, 1.4 mM EDTA, 0.5 mM DTT, 9.95% glycerol, room temp, NMR: 50 mM Na phosphate, 50 mM NaCl.

Data set [3] has as its system MvaT full-length (Pseudomonas aeruginosa PAO1?). Nature of the data set: EMSA. Conditions: EMSA: 8 mM Tris pH 8.0, 15 mM HEPES pH 7.9, 40 mM NaCl, 40 mM KCl, 1.4 mM EDTA, 0.5 mM DTT, 9.95% glycerol, room temp, NMR: 50 mM Na phosphate, 50 mM NaCl.
The test system is the same in data set [4]. Nature of the data set: competition. The conditions noted are these: EMSA: 8 mM Tris pH 8.0, 15 mM HEPES pH 7.9, 40 mM NaCl, 40 mM KCl, 1.4 mM EDTA, 0.5 mM DTT, 9.95% glycerol, room temp, NMR: 50 mM Na phosphate, 50 mM NaCl.
A further data set addresses T3, MvaTctd K102A (Pseudomonas aeruginosa PAO1, UniProt Q9HW86 77-124, K102A).
T3 chain: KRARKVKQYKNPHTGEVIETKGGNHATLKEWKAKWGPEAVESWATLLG
Nature of the data set: ITC; 283 K; slightly lower affinity, Kd +70%; EMSA: 8 mM Tris pH 8.0, 15 mM HEPES pH 7.9, 40 mM NaCl, 40 mM KCl, 1.4 mM EDTA, 0.5 mM DTT, 9.95% glycerol, room temp; NMR: 50 mM Na phosphate, 50 mM NaCl, pH 6.0, 298 K; ITC: 283 K, 0.15 mM DNA in cell, buffer not stated (protein purified in NMR buffer). The conditions noted are these: protein: recombinant; tags: C-terminal His6; blunt, self-complementary.

In a further data set the target is T4, MvaTctd K108A (Pseudomonas aeruginosa PAO1, UniProt Q9HW86 77-124, K108A).
T4 chain: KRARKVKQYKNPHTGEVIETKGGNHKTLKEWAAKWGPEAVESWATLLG
Nature of the data set: ITC; 283 K; EMSA: 8 mM Tris pH 8.0, 15 mM HEPES pH 7.9, 40 mM NaCl, 40 mM KCl, 1.4 mM EDTA, 0.5 mM DTT, 9.95% glycerol, room temp; NMR: 50 mM Na phosphate, 50 mM NaCl, pH 6.0, 298 K; ITC: 283 K, 0.15 mM DNA in cell, buffer not stated (protein purified in NMR buffer). Conditions: protein: recombinant; tags: C-terminal His6; blunt, self-complementary.

For another data set, the target named is T5, MvaTctd K97A (Pseudomonas aeruginosa PAO1, UniProt Q9HW86 77-124, K97A).
T5 chain: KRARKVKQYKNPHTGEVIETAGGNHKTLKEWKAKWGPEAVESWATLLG
Nature of the data set: NMR titration; similar to WT; EMSA: 8 mM Tris pH 8.0, 15 mM HEPES pH 7.9, 40 mM NaCl, 40 mM KCl, 1.4 mM EDTA, 0.5 mM DTT, 9.95% glycerol, room temp; NMR: 50 mM Na phosphate, 50 mM NaCl, pH 6.0, 298 K; ITC: 283 K, 0.15 mM DNA in cell, buffer not stated (protein purified in NMR buffer). The conditions noted are these: protein: recombinant; tags: C-terminal His6; blunt, self-complementary.

The next data set addresses T6, MvaTctd K81A (Pseudomonas aeruginosa PAO1, UniProt Q9HW86 77-124, K81A).
T6 chain: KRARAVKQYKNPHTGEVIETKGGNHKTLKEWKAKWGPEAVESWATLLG
Described as above. Conditions: protein: recombinant; tags: C-terminal His6; blunt, self-complementary.

The next data set addresses T7, MvaTctd WT (Pseudomonas aeruginosa PAO1, UniProt Q9HW86 77-124).
T7 chain: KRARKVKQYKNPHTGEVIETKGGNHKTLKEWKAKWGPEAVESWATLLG
Nature of the data set: ITC; 283 K; EMSA: 8 mM Tris pH 8.0, 15 mM HEPES pH 7.9, 40 mM NaCl, 40 mM KCl, 1.4 mM EDTA, 0.5 mM DTT, 9.95% glycerol, room temp; NMR: 50 mM Na phosphate, 50 mM NaCl, pH 6.0, 298 K; ITC: 283 K, 0.15 mM DNA in cell, buffer not stated (protein purified in NMR buffer). Conditions: protein: recombinant; tags: C-terminal His6; blunt, self-complementary.

For a further data set, the target named is T8, MvaTctd R80A (Pseudomonas aeruginosa PAO1, UniProt Q9HW86 77-124, R80A).
T8 chain: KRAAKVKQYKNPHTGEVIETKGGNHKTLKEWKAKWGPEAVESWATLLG
The description is as above. Conditions: protein: recombinant; tags: C-terminal His6; blunt, self-complementary.

The next data set deals with T9, MvaTctd K105A (Pseudomonas aeruginosa PAO1, UniProt Q9HW86 77-124, K105A).
T9 chain: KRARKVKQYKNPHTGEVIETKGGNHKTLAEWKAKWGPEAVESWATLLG
The description is as above. The conditions noted are these: protein: recombinant; tags: C-terminal His6; blunt, self-complementary.

The target in another data set is T10, MvaTctd N100A (Pseudomonas aeruginosa PAO1, UniProt Q9HW86 77-124, N100A).
T10 chain: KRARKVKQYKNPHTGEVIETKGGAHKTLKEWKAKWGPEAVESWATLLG
The description is as above. The conditions noted are these: protein: recombinant; tags: C-terminal His6; blunt, self-complementary.

We go through 21 molecules from publication PMC4466236, “A Novel AT-Rich DNA Recognition Mechanism for Bacterial Xenogeneic Silencer MvaT”.

Regarding “AAATATAT (double strand) [8-mer AAATATAT]”, in [1], the binding signal (PBM E-score (-0.5 to 0.5)) came to 0.482.
Take “AATATATA (double strand) [8-mer AATATATA]”: the binding signal (PBM E-score (-0.5 to 0.5)) in data set [1] stood at 0.486.
“AATATATT (double strand) [8-mer AATATATT]”: in [1], the binding signal (PBM E-score (-0.5 to 0.5)) amounted to 0.485.
As to “AATATTAA (double strand) [8-mer AATATTAA]”, the binding signal (PBM E-score (-0.5 to 0.5)) in data set [1] came to 0.478.
The molecule “ATATAATA (double strand) [8-mer ATATAATA]” registered a binding signal (PBM E-score (-0.5 to 0.5)) in data set [1] of 0.484.
On the same count and under the same terms, under “ATATATAA (double strand) [8-mer ATATATAA]” stands 0.487; under “ATATATAT (double strand) [8-mer ATATATAT]”, 0.491.
“ATATATTA (double strand) [8-mer ATATATTA]” returned a binding signal (PBM E-score (-0.5 to 0.5)) in [1] of 0.489.
In data set [1], “ATATTAAT (double strand) [8-mer ATATTAAT]” yielded a binding signal (PBM E-score (-0.5 to 0.5)) of 0.484.
“CCGCAGGTGGCTGAACAGGCCGTGCGCTGGCTGGTCGAGCTGCAGGGCGGCGCCGACGACGAACGCCTGCGCCAGGCCTGGCAGCGCTGGCGCCAGGCGGCCCCGGAACACGAGCAGGCCTGGCGCCACATCGAGGCGGTCAACCAGCGCCTGGCCGGGATAGGCACGCCACTGGCCCTGGCCGCCATCAACGCACCGCATTCG (double strand) [PA3900 204 bp fragment]” gave a Kd in data set [2] of 154 nM.
As to PA3900 204 bp fragment, the Kd in data set [3] (apparent Kd) was determined as 154 nM.
In turn, PA3900 204 bp fragment, unlabeled returned a binding (fold molar excess) in data set [4] of over 200.
As to “TATATATA (double strand) [8-mer TATATATA]”, the binding signal (PBM E-score (-0.5 to 0.5)) in data set [1] was determined as 0.493.
“TATATTAA (double strand) [8-mer TATATTAA]” showed a binding signal (PBM E-score (-0.5 to 0.5)) in data set [1] of 0.482.
In [1], “TATTAATA (double strand) [8-mer TATTAATA]” displayed a binding signal (PBM E-score (-0.5 to 0.5)) of 0.481.
Molecule “TATTATAA (double strand) [8-mer TATTATAA]” displayed a binding signal (PBM E-score (-0.5 to 0.5)) in data set [1] of 0.48.
Take “TTAATTAA (double strand) [8-mer TTAATTAA]”: the binding signal (PBM E-score (-0.5 to 0.5)) in [1] stood at 0.481.
The same measure, in the same setting: the same measure for “TTATATAA (double strand) [8-mer TTATATAA]”: 0.483.
cupA1 promoter 340 bp registered a Kd in data set [3] of 57 nM.

B1: 3AT (dsDNA)
DNA 1: CGCATATATGCG
DNA 2: CGCATATATGCG
On to B1, for which the binding signal with MvaTctd K102A is about 1.7 fold Kd increase vs WT; with MvaTctd K108A, over 10 fold Kd increase vs WT; in the data set with MvaTctd R80A, over 10 fold Kd increase vs WT; in the data set with MvaTctd K105A it was over 3 fold Kd increase vs WT; in the data set with MvaTctd N100A, over 3 fold Kd increase vs WT. Also, the binding result in the data set with MvaTctd K97A and with MvaTctd K81A was “binds” in each case. The Kd with MvaTctd WT was about 10700 nM.

B2: GC-rich d(CGCGCGCG)2 (dsDNA)
DNA 1: CGCGCGCG
DNA 2: CGCGCGCG
In the case of B2, in the data set with MvaTctd WT, the Kd was about 360000 nM.
